{"source": "patent US9353390B2", "about": "“Genetically engineered microbes and methods for producing 4-hydroxycoumarin” (University of Georgia Research Foundation, Inc., priority 2013, dated 2016)", "molecules": {"B1": {"name": "EntC, isochorismate synthase from E. coli MG1655 (purified, N-terminal His tag) (Escherichia coli K-12) (protein)", "chain": "MDTSLAEEVQQTMATLAPNRFFFMSPYRSFTTSGCFARFDEPAVNGDSPDSPFQQKLAALFADAKAQGIKNPVMVGAIPFDPRQPSSLYIPESWQSFSRQEKQASARRFTRSQSLNVVERQAIPEQTTFEQMVARAAALTATPQVDKVVLSRLIDITTDAAIDSGVLLERLIAQNPVSYNFHVPLADGGVLLGASPELLLRKDGERFSSIPLAGSARRQPDEVLDREAGNRLLASEKDRHEHELVTQAMKEVLRERSSELHVPSSPQLITTPTLWHLATPFEGKANSQENALTLACLLHPTPALSGFPHQAATQVIAELEPFDRELFGGIVGWCDSEGNGEWVVTIRCAKLRENQVRLFAGAGIVPASSPLGEWRETGVKLSTMLNVFGLH"}, "B2": {"name": "MenF, isochorismate synthase from E. coli MG1655 (purified, N-terminal His tag) (Escherichia coli K-12) (protein)", "chain": "MQSLTTALENLLRHLSQEIPATPGIRVIDIPFPLKDAFDALSWLASQQTYPQFYWQQRNGDEEAVVLGAITRFTSLDQAQRFLRQHPEHADLRIWGLNAFDPSQGNLLLPRLEWRRCGGKATLRLTLFSESSLQHDAIQAKEFIATLVSIKPLPGLHLTTTREQHWPDKTGWTQLIELATKTIAEGELDKVVLARATDLHFASPVNAAAMMAASRRLNLNCYHFYMAFDGENAFLGSSPERLWRRRDKALRTEALAGTVANNPDDKQAQQLGEWLMADDKNQRENMLVVEDICQRLQADTQTLDVLPPQVLRLRKVQHLRRCIWTSLNKADDVICLHQLQPTAAVAGLPRDLARQFIARHEPFTREWYAGSAGYLSLQQSEFCVSLRSAKISGNVVRLYAGAGIVRGSDPEQEWQEIDNKAAGLRTLLQME"}, "B3": {"name": "BIS3: Biphenyl synthase from Sorbus aucuparia, 4HC-forming enzyme (protein, UniProt D2DRC5 1-388, looked up)", "4-hydroxycoumarin synthase 2": "MAPVVKNEPQHAKILAIGTANPPNVFHQKDYPDFLFRVTKNEHRTDLREKFDRICEKSRTKKRYLHLTEEMLKANPNIYTYGAPSLNVRQDICNIEVPKLGQEASLKAIKEWGQPISKITHLIFCTASCVDMPGCDFQLIKLLGLDPSVTRTMIYEAGCYAGATVLRMAKDFAENNKGARVLVVCAEITTVFFHGLTDTHLDILVGQALFADGASAVIVGANPEPEIERPLFEIVACRQTILPNSEHGVVANIREMGFNYYLSGDVPKFVGGNVVDFMTKTFEKVDGKNKDWNSLFFSVHPGGPAIVDQVEEKLGLKEGKLRATRHVLSEYGNMGAPTVHFILDEMRNKSIEEGKTTTGEGLEWGVVIGIGPGLTVETAVLRSEFITY"}}, "key": {"O=C(O)c1ccccc1O": {"tested_on": "O=C(O)c1ccccc1O", "assay": "purified protein, by the assay type", "conditions": "other: MdpB2, salicylate, pH 7.5, 30° C., mean ± s.d., n = 2", "procedure": "The Km and Vmax values were estimated with OriginPro8 through non-linear regression of the Michaelis-Menten equation. […] All data points are reported as mean±s.d. from two independent experiments (n=2). Error bars are defined as s.d.\nThe obtained transformants were pre-inoculated in Luria-Bertani (LB) medium containing 100 μg/ml of ampicillin and grown aerobically at 37° C. overnight. Next day, the pre-inoculums were transferred into 50 ml of fresh LB medium at a volume ratio of 1:100. The cultures were left to grow at 37° C. till the OD600 values reached 0.6-0.8 and then induced with 1.0 mM IPTG. Protein expression was conducted at 30° C. for another 5 h. […] The BCA kit (Pierce Chemicals) was used to estimate protein concentrations. The SCL enzyme assays were performed according to the method described by Ishiyama et al. with modifications (Ishiyama et al. Appl. Environ. Microbiol. 70, 1297-1306 (2004))."}, "[1]": {"biological_target": "T1, MenF, isochorismate synthase from E. coli MG1655 (purified, N-terminal His tag) (Escherichia coli, UniProt P38051)", "T1 sequence (P38051 1-431)": "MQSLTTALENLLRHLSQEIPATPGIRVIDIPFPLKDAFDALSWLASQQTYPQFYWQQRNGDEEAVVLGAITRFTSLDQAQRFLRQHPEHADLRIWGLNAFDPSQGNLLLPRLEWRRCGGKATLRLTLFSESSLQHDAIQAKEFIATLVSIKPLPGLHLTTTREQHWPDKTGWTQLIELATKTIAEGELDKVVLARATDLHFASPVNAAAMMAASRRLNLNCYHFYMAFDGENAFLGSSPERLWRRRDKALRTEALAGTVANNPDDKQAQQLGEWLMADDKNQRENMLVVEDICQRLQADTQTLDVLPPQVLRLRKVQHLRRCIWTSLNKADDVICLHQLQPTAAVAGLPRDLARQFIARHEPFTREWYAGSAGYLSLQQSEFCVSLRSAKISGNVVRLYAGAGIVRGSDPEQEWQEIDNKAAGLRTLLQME", "assay": "ICS coupled enzyme assay, MenF (with PaPchB, salicylate accumulation by HPLC)", "conditions": "chorismic acid, pH 7.5, 30° C., 0.1 μM enzyme, mean ± s.d., n = 2", "procedure": "(§1) Kinetic parameters of EntC (A), MenF (B), and PchA (C). The Km and Vmax were generated with OriginPro8 through non-linear regression of the Michaelis-Menten equation. […] All data points are reported as mean±s.d. from two independent experiments (n=2). Error bars are defined as s.d.\n(§2) The kinetic parameters of the ICSs: EntC, MenF, and PchA were determined using coupled assays (Payne et al. Org. Biomol. Chem. 7, 2421-2429 (2009)). […] The reactions lasted 1 min for EntC, and 5 min for MenF and PchA, respectively, and then were terminated by acidification with 20 μL of HCl (20%). […] The kinetic parameters were estimated by using OriginPro8 through non-linear regression of the Michaelis-Menten equation."}, "[2]": {"biological_target": "T2, PchA, isochorismate synthase from Pseudomonas aeruginosa PAO1 (purified, N-terminal His tag) (Pseudomonas aeruginosa, UniProt Q51508)", "T2 construct": "coupled with PaPchB", "T2 sequence (Q51508 whole entry)": "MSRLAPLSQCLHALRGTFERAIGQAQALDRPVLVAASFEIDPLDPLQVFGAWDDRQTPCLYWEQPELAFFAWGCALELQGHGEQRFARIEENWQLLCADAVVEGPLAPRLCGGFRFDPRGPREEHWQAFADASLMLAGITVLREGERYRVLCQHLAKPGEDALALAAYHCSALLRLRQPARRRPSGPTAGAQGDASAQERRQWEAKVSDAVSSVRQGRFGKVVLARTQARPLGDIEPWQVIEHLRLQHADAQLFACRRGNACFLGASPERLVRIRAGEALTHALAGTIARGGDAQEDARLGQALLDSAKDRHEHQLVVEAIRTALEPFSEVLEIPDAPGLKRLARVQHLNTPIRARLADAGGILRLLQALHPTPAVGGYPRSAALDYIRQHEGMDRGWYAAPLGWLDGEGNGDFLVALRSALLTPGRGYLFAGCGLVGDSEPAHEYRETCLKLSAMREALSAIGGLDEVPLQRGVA", "type": "biochemical", "conditions": "chorismic acid, pH 7.5, 30° C., mean ± s.d., n = 2", "procedure": "as §1, §2"}, "[3]": {"biological_target": "T3, EntC, isochorismate synthase from E. coli MG1655 (purified, N-terminal His tag) (Escherichia coli, UniProt P0AEJ2)", "T3 sequence (P0AEJ2 1-391)": "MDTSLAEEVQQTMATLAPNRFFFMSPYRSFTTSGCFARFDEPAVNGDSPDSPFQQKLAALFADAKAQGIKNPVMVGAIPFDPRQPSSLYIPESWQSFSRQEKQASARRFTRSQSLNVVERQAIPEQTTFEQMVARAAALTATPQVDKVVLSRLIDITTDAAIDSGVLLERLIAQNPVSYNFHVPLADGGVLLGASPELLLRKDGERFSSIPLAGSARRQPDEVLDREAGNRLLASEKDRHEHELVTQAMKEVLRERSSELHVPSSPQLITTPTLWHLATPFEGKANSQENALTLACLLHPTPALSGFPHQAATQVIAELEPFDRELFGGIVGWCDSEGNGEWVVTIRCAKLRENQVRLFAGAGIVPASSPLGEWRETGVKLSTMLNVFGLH", "assay": "ICS coupled enzyme assay, EntC (with PaPchB, salicylate accumulation by HPLC)", "conditions": "chorismic acid, pH 7.5, 30° C., 0.1 μM enzyme, mean ± s.d., n = 2", "procedure": "as §1, §2"}, "[4]": {"substrate": "C=C(O[C@@H]1C=C(C(=O)O)C=C[C@H]1O)C(=O)O", "assay": "purified protein, by the assay type", "conditions": "chorismic acid, pH 7.5, 30° C., mean ± s.d., n = 2", "procedure": "as §1, §2"}, "[5]": {"tested_on": "conversion of salicylate to 4HC", "assay": "In vitro complementation assay, salicylate to 4HC in crude extract of E. coli/pZE-EPBS", "conditions": "purified enzyme supplemented into crude extract with required cofactors; crude extract alone 0.18 mg/L/h", "procedure": "The E. coli strain carrying the plasmid pZE-EPBS was pre-inoculated into 3 ml LB liquid medium containing 100 μg/ml of ampicillin and grown at 37° C. overnight with shaking at 300 rpm. In the following day, 1 ml of the preinoculum was added to 50 ml of fresh M9Y medium. The culture was left to grow at 37° C. till the OD600 value reached around 0.6 and then induced with 0.5 mM IPTG. The expression of the pathway enzymes was conducted at 30° C. for another 5 hours. The cells were harvested and re-suspended in 2 ml of Tris-HCl buffer (100 mM, pH=7.5), and then lysed by French Press. The soluble fraction was collected by ultra-centrifugation and used as the crude enzyme extract for the complementation assay. […] After 30 min reaction, 100 μl of malonyl-CoA (2 mM) and 50 μl of crude extract with/without purified BIS3 (20 μl) were supplemented into the reaction system. The reactions were finally terminated in another 0.5-2 h by acidification."}}, "note": "Values joined by “and” are separate entries in the source; they are usually repeats but may differ in a detail not shown here. Equal values may be shown once.", "data": [{"molecule": "MdpB2, salicylate:CoA ligase from Actinomadura madurae ATCC39144 (purified, N-terminal His tag) (Actinomadura madurae)", "values": [{"measurement": "Km", "setting": "O=C(O)c1ccccc1O", "result": "8.53 ± 0.94", "unit": "µM"}, {"measurement": "kcat", "setting": "O=C(O)c1ccccc1O", "result": "1.18 ± 0.03", "unit": "s⁻¹"}, {"measurement": "kcat/Km", "setting": "O=C(O)c1ccccc1O", "result": 138000, "unit": "M⁻¹ s⁻¹"}]}, {"molecule": "C=C(O[C@@H]1C=C(C(=O)O)C=C[C@H]1O)C(=O)O", "note": "[chorismic acid]", "values": [{"measurement": "kcat", "setting": "[1]", "result": "0.13 S^−1 and 0.13 ± 0.01 S^−1"}, {"measurement": "kcat", "setting": "[2]; 0.1 μM enzyme", "result": "0.20 S^−1 and 0.20 ± 0.01 S^−1"}, {"measurement": "Km", "setting": "[2]", "result": "3.69 ± 0.53", "unit": "µM"}, {"measurement": "kcat", "setting": "[3]", "result": "2.12 S^−1 and 2.12 ± 0.07 S^−1"}]}, {"molecule": "B1", "values": [{"measurement": "Km", "setting": "[4]; other: EntC", "result": "11.93 ± 1.37", "unit": "µM"}]}, {"molecule": "B2", "values": [{"measurement": "Km", "setting": "[4]; other: MenF", "result": "6.75 ± 2.99", "unit": "µM"}]}, {"molecule": "B3", "values": [{"measurement": "rate of conversion of salicylate to 4HC", "setting": "[5]", "result": 7.83, "unit": "mg/L/h"}]}]}
